The values below come from PMC9852587.

In this assay the target is His-SYMREM1 (Medicago truncatula). The assay is described as follows: SEC; analytical gel filtration of fresh recombinant His-SYMREM1, calibrated with standard proteins; apparent molecular weight compared with the calculated size of a dimer.

Regarding His-SYMREM1 (natural protein), the stoichiometry N was 2.

In general, stoichiometry N refers to a count of units in the complex or per binding partner.
